Data published in paper PMC6389498, “Control of Bacterial Virulence through the Peptide Signature of the Habitat” (Cell Reports, 2019).

Experiments:
[1] = target: PrfA (recombinant PrfA^WT from E. coli BL21(pET28aprfA^WT), used in the biophysical assays) (Listeria monocytogenes) (UniProt P22262); test: ITC; GE MicroCal iTC200; 100 uM PrfA in the cell, 2 uL of 250 uM peptide injected every 60 s; 50 mM Tris pH 7.5, 500 mM NaCl; one-site model
[2] = target: PrfA (recombinant PrfA^WT from E. coli BL21(pET28aprfA^WT), used in the biophysical assays) (Listeria monocytogenes) (UniProt P22262)
[3] = target: PrfA (full-length PrfA^WT with two non-native N-terminal residues GA after TEV cleavage, used for crystallization) (Listeria monocytogenes) (UniProt P22262); test: crystal structure

Chain of PrfA (recombinant PrfA^WT from E. coli BL21(pET28aprfA^WT), used in the biophysical assays) (Listeria monocytogenes) (P22262 whole entry): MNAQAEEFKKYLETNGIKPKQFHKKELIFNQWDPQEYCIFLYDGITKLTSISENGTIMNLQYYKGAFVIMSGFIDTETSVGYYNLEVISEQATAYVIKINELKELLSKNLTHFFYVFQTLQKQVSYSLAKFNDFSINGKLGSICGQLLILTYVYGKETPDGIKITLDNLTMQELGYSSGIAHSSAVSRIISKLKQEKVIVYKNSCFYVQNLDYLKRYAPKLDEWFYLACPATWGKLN
Chain of PrfA (full-length PrfA^WT with two non-native N-terminal residues GA after TEV cleavage, used for crystallization) (P22262 1-237, tags left off): as the sequence (P22262 whole entry) above

Row | Kd [1] [µM] | other [2] [%] | Substance | stoichiometry N [3]
1 | 25 | 93 | LL peptide (Leu dipeptide, L-leucylleucine) | –
2 | 25 | 87 | LLL peptide (Leu tripeptide) | –
3 | – | – | PrfA (full-length PrfA^WT with two non-native N-terminal residues GA after TEV cleavage, used for crystallization) (from UniProt P22262 1-237) (natural protein) | 2
